Reference: a protein production outcome set (Wang et al. 2014)

Assay: label from the status in PepcDB records

MFKASHVLQGEDQTRSAAEFFPVISANYAVDEEAYLGELLQLADPGPDGIEAIRRNARALIETVRSRDNAVDTLDALLRQYSLDTQEGLMLMCLAEALLRVPDAATADALIRDKLSAADWQRHLGQSDNVLVNFAAWGLVMTGKVVNIDERTDGRAPSVISRLVQRSGEPVIRAAMNQAMKLMGKQFVLGRTISEALKNGRPCREQGYTYSFDMLGEAALTAADAEKYMADYRQAIDTVGAEPQVGPGPRPSISIKLSALHPRYEVAQRERVLSELFANVLELAVRARKLNVGITIDAEEADRLELSLELYEKLMRDPAIAGWGEFGLVIQAYSKRCLPVLVWLTLLGRELGARIPLRLVKGAYWDSEIKQCQVQGADGYPVYTRKEGTDTSYLACARYLLSEHTRGVIYPQFASHNAHTVTAILALADEARAAGGEERDFEFQRLHGMGDALYDTVIEKYRRNVRIYAPVGAHKDLLPYLVRRLLENGANSSFVHKLVDPRVPVETLIQHPVTQLRQFKTLANDRIPLPQAIFGAGRKNSQGINMNIQNQWNELELAYKPHLTRQWQAAPIVNGEKLSGPAHEVRCPYDLERLVGSVQYASAEQAGKALDVLQAAWPRWSATPVDERAGILERLADLLEAQRGELMALCTLEAGKSLQDGIDEIREAVDFCRYYAQQARQRLVREELRGPTGERNELFYEGRGIFACVSPWNFPLAIFLGQISAALVAGNTVLAKPAEQTSLIAARTVELMFEAGLPKDVIALLPGDGATLGGVFCRDARVAGVAFTGSTDTARIINRQLAEKPGAIATLIAETGGQNAMIVDSTALPEQVIKDAVQSAFTSAGQRCSALRVMYVQQDIAERVIELLKGAMAELKVGPTEVRVSDVGPVIDAEAKAGLEQHIAALKAAGKLIAETKVPGNLNGHFVAPVAFEISGIDELKKENFGPVLHVVRYAAQDLEKVVQAINATGFGLTMGVHSRNEETARRIEELARVGNLYINRNQIGAVVGVQPFGGHGLSGTGPKAGGPNYLLRFVSERTTSVNTTAVGGNA
protein production: failed

MFKHCLICTDFSDGLQRLAGFVEELSLSGITKLIFLHTVSVWEDEHIADVDESKLKEAKTYLESLVGQVPPGIEVKVEVSSVRYVDLVNQLVEQEAIDLIINGMPVRSNLESKLFGSHTLSLAKSTKVPVMILRPQLVSTYTVEEMALRCQHLWRNLLVPYDASSAGNYLIERLKSALEKAPPGKVESCYFLSILEDGMRRPELLEIRRQEAEAKLAEIKQQFSPLVPNIITEVRHGSPVQEILDTAFVNDITAIAVASRRATLLDWTVPSLTDSILNRSWFPLLFFSPKG
protein production: failed

MFKIYNNGNPIPMGYSQAVENNVQITNFALFSAAAIGVELCLFDEQNQETRLPMVRTENVWHLAVTGVKTGTEYAFRIHGEFANPQKLILDPYAKAVNGKPDLSSEESRSWFLLSDNRDNAHLAPRAVVIS
protein production: failed

MFKKGVVPSQGLRIIIVGCGKVGRTLVEQLGKEGHDITIIDKNRERISQVSNIYDVMGIAGNGASYKILQEAGIDDADLIIAVTGSDELNLLCCTIATQVGNCAAIARVRTPEYSQEAKYLRDKLGLALIINPELEAAIEMAHILHLPSSLEVTNFAHGQAQLIKYEIPEGSILDGTKLMDLGTRHHANILIGAVERDDEVTIPSGDFVLRKGDKLSFVGERRHTKEFFSHIGVNTHSVKNTLIIGGGKAAYYLAKQLISRGIKVKIIENSFERCEELSILLPDAVIINGDGTEQALLKEEGIETCQSFVPLTGIDEENIMLTLYAKQVSNAKVITKLNRITFTNVINSLDLGSVISPKYITSEAIIAYVRAKKNSMNCNIETLYHMYDSRVEAIEFFVSENSNVTDIPLRDLKLKKHLLICFINRNGKIIIPTGNDCIQKNDTVMIITTNTGFTNLQDIME
protein production: failed

MFKKLLHSLFAGLTFMAAVAAVPAHAQEADAQTTVKTAVDDVLATIKGDSDLRSGNMQKVFQLVDQKIVPRADFKRTTQIAMGRFWSQATPEQQQQIQDGFKTLLVRTYAGALANVRNQTVSYKPFRAAADDTDVVVRSTVNNNGEPVALDYRMEKSANGWKVYDINISGLWLSETYKNQFAEVISKRGGVSGLVQFLDERNAQLAKGPAKLEHHHHHH
protein production: not failed

MFKLHILFALSAPQRIAFWVWRGLFVVALAAAGIGSTRAQSYSFRDYAQSDGLQGMSITGLVEDRRGVVWVATELALHRFERDRFIPVGQDQGLDARYTRALTLDHAGRLWVATANGVFVRNGEQFVQVLDHGKRIRADAGNVIAAYRTGVAVASNGALLALTPEADGHWQVQPLPVRTADGKLREPGTTLLADGQFLWVPCDGGVCRLDARGTVVEALSEADGVPARRWRVIFRERGGRLWLRGGGTIVSRAPGGARFTEHPANPENSFNTLSGSTTMVEDARGRMLTRSDHGLVRWEGTHWTDIGADQGLQLNALVGPLLLQSNGTLWLGTRGMGLQRVLGYDSIEHLTEAQGMPPAPTWTMQRLPNGMLAVGADGGASLLKRNATHAQPWLLEDGAVLSQALNITVAPDGAAWVSYYSGAIARRDPLTGVTSRVMDLPIAGYKLLFDKAGTVWIATPRGLVRGQAAPPYALAPDPAMEGKFIGDIDFDRQGRLWAATRDGLYRRNGTTWVKIPVRGSLPSQDMLQIDFAPNGEIWLSLRDTGLWHGRLQGDGSLLLQAVDDPLISRIMPYILRHDRKGRLWVGSSQGLDLYQNGHWSRITRAEGLLWDDMSSNAFLEDDDGSIWIGSSRGLSHLRDPQRLFAAQPLRVDIAEVRRGAQIVHSGASIAWSETPLEIELSTPGVEGGANRISFRYRVQARWTTSSLSHLTYPLLPPGNYTLEVQALDAYQRSASPIARFQFVIRPPWWRSIAAIAGYLLLAVVAVIALLRWRTAKLLRRKHELEQLVAERTAELEQDKRDLEAARAELSLKATHDELTGLLNRAGILAALREMLLHAARSGRPLAVVLIDLDHFKLVNDQHGHLAGDAVLAGVGHRMDTLVRGDDRIGRYGGEELLALLPGLTPGATHRLDAMHRGICGDYPVDDGWLHVTCSIGVAWFQAGETLEQLLARADAALYRAKRSGRNRIDYDHVPLDRLGQVLPLDPQQRE
protein production: failed

MFKNLIWLKEVDSTQERLKEWNVSYGTALVADRQTKGRGRLGRKWLSQEGGLYFSFLLNPKEFENLLQLPLVLGLSVSEALEEITEIPFSLKWPNDVYFQEKKVSGVLCELSKDKLIVGIGINVNQREIPEEIKDRATTLYEITGKDWDRKEVLLKVLKRISENLKKFKEKSFKEFKGKIESKMLYLGEEVKLLGEGKITGKLVGLSEKGGALILTEEGIKEILSGEFSLRRS
protein production: not failed

MFKNNDFIYIEYTAKIKDTGEIVDTTNEEEAKKANIYDETRNYGPRLVILGENRLIKGLEEALYNFNLNEEKTIEIPPEKAYGERDNSKIKIVPLGELRRQGITAVPNRVLRLSDGSLAVIRSVSGGRVVLDLNHPLAGRTLVYNVKVVKVLNNAKDKIMALIERRFSSKYANGFNVELDDGKKSVRITIPKDLYLVEDLQINVYSLAYEIVNYVLADYTVEVLQQYNKSTFSSS
protein production: failed

MFKNVKKSVTRTIASAMLLILLLSVATTGFAIFTLASSLNDAEAVNVAGSMRMQSYRLAHDIQIRSVDYSSHIDAFEHSIYSSSMKALQHWSVPEDITHDYYRLIMRWHELKSVLRGEDPSQYQLLVAGFVQQIDDFVFKLQNFSEQKLINLAWIGGLGLGGILCASMFVVHFIRLEVVRPLRALVFASERIKNRSFDINLAVSSDNEMGILTRTFNRMATDLGKLYRGLEQAVDEKTRKLQHANQSLEVLYDSSKELTASRINQDNFQAILKHIASLEGIKAVKLEIEQLGEPNWILTEGEECCHDCDDECHAEPLTLDGEHLGSLYWKAGLPCPNETLIDNFVQILSRAVYYNRAQRQAEQILLMEERATIARELHDSLAQALSYLKIQVALLKRSVKNLPDEKAIAQANQVIAELDTGLSAAYTQLRELLTTFRLTIKEGSFGQALQEMVETLNEQTTAEITLKNRLSSTELDAHQQVHLLQLIREAALNAIKHAQADHIHIQCLDCDGKVTVTVSDDGVGFEHQDEKINHYGMTIMQERAARLHADLQIEASINKGCTVKLEFQHSKEVNFDSV
protein production: failed

MFLNRKVELSLLENLHAEGKPKLILLYGKRRVGKTELLNEFARRHRALYLVARQEAYEGQLKKMSSEIAEFFDDDVLRHSPFQNYDALFIYLAQKETPVLFDEFPYLVEANRDLPSILQEYWDRYFSKKKTFLVLCGSSIAMMESLLGYKSPLYGRRTEQILLEPLKFREACEFFPQLEQEDKVLAYAVLGGTPAYLLEFDYGKPLLENIRDRILQKNTFLYQDTMFVLQQELTEPRVYYSIINSIAKGNTRLGEIMNDTGLEKSKITKYLSVLKDLHIIERRVPVTEKSPESSKKGIYLLKDNYFKFWFRFVFENAEYIEQGRQEKLIGDKISPVLNNFAGFAYEEIVLEYLKSSPGFPDYIFGRWWDKEEEIDVVGLDSSQNRIIFGEVKWKALTEKEARQTLNQLVEKSVEVKWGENLKSGEIQEGPEKKYMLVGKKVGGKKRLLGDGYLVLELDDLVEN
protein production: failed

MFLNYFALGVLIFVFLVIFYGIIAIHDIPYLIAKKRNHPHADAIHTAGWVSLFTLHVIWPFLWIWATLYQPERGWGMQSHVASQEKATDPEIAALSDRISRLEHQLAAEKKTDYSTFPEI
protein production: failed

MFMREIELRGHIIDSLILPKVFDKILDMGGDYKVLEFEIGKRKTDPSYAKILVIGRDERHVDEILNELRDLGAEIPEIEEVELQPAEKDMVLPEGFYSTTNHKTFIRFKGKWIEVENQKMDGAIVVYPDEMRAEVKTIRNIKKGDLVVVGHKGVRVIPPEKPREGGGLFEFMKSDASSEKPKETIIRRIAKEMYEIREKYRKTGKGGIVVVGGPAIIHTGAGWALAKLIRMGYVQALFAGNALATHDIESVLYGTSLGVDLKTGKSVPGGHSHHLRAINTIMRAGSIKDAVEQGILKEGVMYECIKNNIPYVLAGSIRDDGPLPDVITDVVKAQEKMRELLKGKDMVLMLSTMLHSIATGNLLPSWVKTICVDINPAVVTKLMDRGTSQALGIVTDVGVFLPMLVEELEKLEKEKEKSEKREELEHHHHHH
protein production: not failed

MFNIADGGFTELHTLWLNEEKAAVPGREYEIWHRRHDYWLLAGIVTHGYGRWQDIQNDIRFAIINEPFKMDVGKGNFLEIKNKFLARRFKLLEQALVIEEQLRRAAYLNLAQDPSHPAMSLNARFAEVECLAESHQHLSKESLAGNKPANAVLHKVLNQLEELLSDMKSDVSRLPATLARIPPVAQRLQMSERSILSRLA
protein production: failed

MFNPNVAVKNIVTQNGADSIISLIARILMAYIFLVAGWGKITAYSATVGYMEAMGVPGALLPLTILVEFGGGLALLFGFQARFAAFGLGIFSLLTAFIFHEGTDQAQAINFMKNFAMAGGLFFLMLHGAGKISLDAAIEK
protein production: failed

MFPILLLAFIFVPIIEIGLFIQVGGFLGLWPTIALVLITAFVGASLVRSQGIQTLMSVQGRLEQGEIPAQQIFEGVMLAVAGVLLLTPGFMTDALGMVVLLPAPRAAIAKYLMSKMVVKTMHGGGFQGGFSNQGPFEQDPFHRDPFDSRSDNGNTFEGEYERKDDDDRNKLN
protein production: failed

MFPLNFHYEDVSRQDPLLKPNHANVMEVPGSCEIRVVPKAPYNFIIKNGKLAMEIPRGQKFIQTQRGSTGKSFRSNPFLGSNKDKGYVSDLARQSTLRGHGMSNFSVRISTVMSLLDFPVEIRKNSIQFSMETEFCEFSPELEDHFEIFEHIRGFNVTIITSANTQDETLPLWSGFLQKDEGETQ
protein production: failed

MFPNSILGRPPFTPTHQQHNNFFALSPTLYSHQQLIDAQFNFQNVDLSRAVSLQPLTYGTVSPIQTSTSPLFRGRKRISDEKAFRLDGKRQRFHSPHQEPTIINQLVPLSGDRRYSMPPLFHTHYVPEIVRCVPPLREIPLLEPREITLPEAKDKLSQQILELFETCQQQASDLKKKELCRAQLQREIQLLFPQSRLFLVGSSLNGFGARSSDGDLCLVVKEEPCFFQVNQKTEARHILTLVHKHFCTRLSGYIERPQLIRAKVPIVKFRDKVSCVEFDLNVNNTVGIRNTFLLRTYAYLENRVRPLVLVIKKWASHHEINDASRGTLSSYSLVLMVLHYLQTLPEPILPSLQKIYPESFSTSVQLHLVHHAPCNVPPYLSKNESSLGDLLLGFLKYYATEFDWNTQMISVREAKAIPRPDDMEWRNKYICVEEPFDGTNTARAVHEKQKFDMIKDQFLKSWQRLKNKRDLNSVLPLRAATLKR
protein production: failed
